From patent US20030207263A1, “Method of screening therapeutic agents” (priority 1998, published 2003)

Legend:
[1] = tested on: CAGA box reporter vector in HepG2 cells
Description: (§2) FIG. 1C: HepG2 and Mv1Lu cells were transfected with p3TP-Lux or a vector containing nine or twelve copies of the CAGA box upstream of the minimal Adenovirus Major Late Promoter (MLP). Fold inductions by TGFβ are given for HepG2 cells.
(§3) FIG. 3B: HepG2 cells were transfected with a (CAGA)12-MLP-Luc reporter construct and induced by BMP-7, activin or TGFβ (respectively 100 ng/mL, 20 ng/mL and 10 ng/mL).
(§4) HepG2 and MDA-MB468 cells were transiently transfected, with the indicated constructs and the internal control pRL-TK vector, using the calcium phosphate co-precipitation method. When increasing amounts of expression vectors were transfected, total DNA was kept constant by addition of pCMV5. Cells were serum starved for 8 h before stimulation with 7 ng/mL of human recombinant TGFβ1 (R&D) and luciferases activities were quantified 14 h later using the Dual Luciferase Assay (Promega). For activin and BMP-7 (Creative Biomolecules) induction, respectively 20 ng/mL and 100 ng/mL were used. Values were normalized with the renilla luciferase activity expressed from pRL-TK. […] Luciferase values shown in figures are representative of transfection experiments done at least three times.

[2] = tested on: renilla luciferase driven by the RSV LTR, clone 1613; test: Renilla luciferase specificity/toxicity control (pRc/Renilla), clone 1613; details: for relative renilla luciferase activities (fold induction): value 1 = absence of TGFβ
Excerpt: (§1) The expression of this transgene should not be regulated by TGFβ or activin, i.e. it should not contain CAGA sequences in its regulatory regions. For instance, the renilla-luciferase gene can be transcribed from the RSV (Rous Sarcoma Virus) promoter or SV (Simian Virus 40) promoter. […] This means that an agent acting specifically through CAGA boxes-mediated transcription will have an effect on the firefly luciferase activity but not on the renilla luciferase activity.

[3] = tested on: CAGA box reporter vector in HepG2 cells; test: Transient CAGA boxes-MLP-Luc reporter in HepG2 cells; details: (CAGA)12-MLP-Luc, TGFβ 10 ng/mL
Description: as §2, §3, §4

[4] = tested on: renilla luciferase driven by the RSV LTR, clone F89; test: Renilla luciferase specificity/toxicity control (pRc/Renilla), clone F89; details: for relative renilla luciferase activities (fold induction): value 1 = absence of TGFβ
Excerpt: as §1

[5] = tested on: CAGA box-mediated transcription ((CAGA)9MLP-Luc, clone F89); test: TGFβ-responsive (CAGA)9MLP-Luc firefly luciferase reporter, stable clone F89; details: for relative firefly luciferase activities (fold induction): value 1 = absence of TGFβ
Description: (§5) Thus, the renilla luciferase activity can be used as an internal toxicity control.
(§6) At day 1, 40 (96 well-) microplates are seeded, using a multidrop apparatus, with CAGA-reporter cells (i.e F89 or 1613) at a concentration of 35000 cells per well in 200 μl of serum-containing medium.
(§7) 8 to 24 hours later (Day 2), microplates containing the chemical compounds to be tested, diluted in 100% DMSO, are placed in a carousel and the cell-incubation procedure is launched. The computer system coordinates then the actions of different peripheric equipments in order to incubate the cells in the presence of TGFβ with the coumpounds to be tested.
(§8) Cells and compounds microplates are moved through the robotic line to the adequate peripheries by the axial rotatable arm. Cells are washed and incubated in a serum-free medium. The pippetage station realizes different operations including preliminary dilutions in order to incubate the cells with TGFβ and the chemical compounds to be tested. The final concentration of TGFβ (rhTGFβ-1 from R & D) used in the test is 1 ng/mL and the compounds are tested at a final concentration of 10 μl in a final concentration of DMSO of 1%. Cells are incubated with the compounds to be tested 15-30 mn prior the addition of TGFβ. The final volume of the test reaction is 150 μl. Wells A1 through H10 are the test wells and contain cells incubated with the chemical agents to be tested in the presence of TGFβ. Each well contains only one singular chemical compound and allows to test its effect on CAGA-mediated transcription. Columns 11 and 12 are kept for controls. Column 11 contains 8 wells where cells are incubated in the presence of TGFβ without chemical compounds. Column 11 determines of the reference TGFβ-induced firefly luciferase value to which will be compared the values measured in the test wells to identify potential inhibitor or activator coumpounds. In wells A12 to D12, cells are grown in medium without TGFβ. The firefly luciferase value obtained with these points represents the ‘basal firefly luciferase activity’ and allows to control that the TGFβ induction is correct. In wells E12 to H12, cells are incubated in the presence of TGFβ with 500 μM CPO (Cyclopentenone, Sigma) which is a cell toxic compound. […] These points allows to control that the test is sensitive to toxic compounds.
(§9) 12 to 18 hours later (day 3), the luciferase quantification procedure is launched. The following reactions are realized using reagents of the Dual Luciferase Assay Kit from Promega. Cells are washed and lysed with the addition of 10 μl of passive lysis buffer (Promega). After 15 to 30 mn of agitation, luciferase activities of the plates are read in a dual-injector luminometer (BMG lumistar).

[6] = tested on: human PAI-1 promoter (PAI-1-Luc, clone 1613); test: Human PAI-1-Luc firefly luciferase reporter, stable clone 1613; details: for relative firefly luciferase activities (fold induction): value 1 = absence of TGFβ
Description: as §5, §6, §7, §8, §9

[7] = tested on: CAGA-reporter cells (i.e F89 or 1613); test: Toxic-compound control wells of the automated high throughput transcriptional screen; format: cell-based, human; details: 500 μM CPO in the presence of TGFβ

In the case of “TGFβ: human recombinant TGFβ1 (R&D), cytokine used to induce CAGA box-mediated transcription”, the TGFβ-mediated fold induction [1] is reported as “Several hundred”, the “relative renilla luciferase activities (fold induction)” value ([2]; TGFβ 0.2 ng/mL) is reported as 0.8 fold induction and the “relative renilla luciferase activities (fold induction)” value ([2]; TGFβ 1 ng/mL) is reported as 1 fold induction. The “relative renilla luciferase activities (fold induction)” value ([2]; TGFβ 5 ng/mL) was 1 fold induction, the “relative renilla luciferase activities (fold induction)” value ([2]; TGFβ 10 ng/mL) was 1.3 fold induction and the “fold induction of CAGA boxes containing reporter” value [3] was 200 fold. For the same molecule, the “relative renilla luciferase activities (fold induction)” value ([4]; TGFβ 0.2 ng/mL) was 1.1 fold induction, the “relative renilla luciferase activities (fold induction)” value ([4]; TGFβ 0.5 ng/mL) was 1.1 fold induction and the “relative renilla luciferase activities (fold induction)” value ([4]; TGFβ 1 ng/mL) was 1.2 fold induction. The “relative renilla luciferase activities (fold induction)” value ([4]; TGFβ 5 ng/mL) was 1.5 fold induction, the “relative renilla luciferase activities (fold induction)” value ([4]; TGFβ 10 ng/mL) was 1.8 fold induction and the “relative firefly luciferase activities (fold induction)” value ([5]; TGFβ 0.2 ng/mL) was 6 fold induction. For the same molecule, the “relative firefly luciferase activities (fold induction)” value ([5]; TGFβ 0.5 ng/mL) was 31 fold induction, the “relative firefly luciferase activities (fold induction)” value ([5]; TGFβ 1 ng/mL) was 109 fold induction and the “relative firefly luciferase activities (fold induction)” value ([5]; TGFβ 5 ng/mL) was 461 fold induction. For the same molecule, the “relative firefly luciferase activities (fold induction)” value ([5]; TGFβ 10 ng/mL) was 737 fold induction, the “relative firefly luciferase activities (fold induction)” value ([6]; TGFβ 0.2 ng/mL) was 8 fold induction and the “relative firefly luciferase activities (fold induction)” value ([6]; TGFβ 1 ng/mL) was 26.2 fold induction. The “relative firefly luciferase activities (fold induction)” value ([6]; TGFβ 5 ng/mL) was 43.5 fold induction and the “relative firefly luciferase activities (fold induction)” value ([6]; TGFβ 10 ng/mL) was 50.1 fold induction.

In the case of `O=C1C=CCC1` [CPO, Cyclopentenone], the “firefly luciferase activity relative to TGFβ-only wells” value [7] is reported as “around 50%” and the “renilla luciferase activity relative to TGFβ-only wells” value [7] is reported as “around 50%”.

`CCOc1cc(/C=C(\C#N)C(N)=O)cc(CSc2ccccc2)c1O` [Compound A, α-cyano4-hydroxy-3-ethoxy-5-phenylthiomethyl cinnamamide] was tested, and the “inhibitory effect on the renilla luciferase activities” value ([2]; specificity/toxicity control) was “not on the renilla luciferase activities”, the “inhibitory effect on the renilla luciferase activities” value ([4]; specificity/toxicity control) was “not on the renilla luciferase activities” and the “firefly luciferase activity (value 100 = absence of compound A, 1 ng/mL TGFβ)” value ([5]; compound A 0.1 μM) was 98. For the same molecule, the “firefly luciferase activity (value 100 = absence of compound A, 1 ng/mL TGFβ)” value ([5]; compound A 1 μM) was 95, the “firefly luciferase activity (value 100 = absence of compound A, 1 ng/mL TGFβ)” value ([5]; compound A 5 μM) was 86 and the “firefly luciferase activity (value 100 = absence of compound A, 1 ng/mL TGFβ)” value ([5]; compound A 10 μM) was 23. For the same molecule, the “firefly luciferase activity (value 100 = absence of compound A, 1 ng/mL TGFβ)” value ([6]; compound A 0.1 μM) was 105, the “firefly luciferase activity (value 100 = absence of compound A, 1 ng/mL TGFβ)” value ([6]; compound A 1 μM) was 102 and the “firefly luciferase activity (value 100 = absence of compound A, 1 ng/mL TGFβ)” value ([6]; compound A 5 μM) was 65. For the same molecule, the “firefly luciferase activity (value 100 = absence of compound A, 1 ng/mL TGFβ)” value ([6]; compound A 10 μM) was 36.
